Results from patent US20040253236A1.

Legend:
[1] = target: collagen type I; experiment: cell-based or functional assay
[2] = target: baboon platelet GPVI (baboon); experiment: flow cytometry, washed baboon platelets (positive control)

Molecule | concentration of rhusGPVI:Fc needed to inhibit collagen-induced versus Cvx-induced platelet activation [1] [fold] | Baboon fluorescence intensity [2] | Baboon platelets % positive [2] [%]
recombinant human soluble GPVI:Fc (rhusGPVI:Fc) (from UniProt Q9HCN6 21-269) (Fc fusion) | 10 | – | –
convulxin (Cvx), purified from the venom of Crotalus durissus terrificus (ligand) chain 1: GLHCPSDWYYYDQHCYRIFNEEMNWEDAEWFCTKQAKGAHLVSIKSAKEADFVAWMVTQNIEESFSHVSIGLRVQNKEKQCSTKWSDGSSVSYDNLLDLYITKCSLLKKETGFRKWFVASCIGKIPFVCKFPPQC chain 2: GFCCPSHWSSYDRYCYKVFKQEMTWADAEKFCTQQHTGSHLVSFHSTEEVDFVVKMTHQSLKSTFFWIGANNIWNKCNWQWSDGTKPEYKEWHEEFECLISRTFDNQWLSAPCSDTYSFVCKFEA | – | 72 | 95
